# Numbered stars: 1 amine (or outer) side, 2 acyl side, 3 side chain; on linkers, the order of the positions; unused ones are H or OH. Bridge positions count the residues as written; N and C are the ends. Square brackets hold non-standard residues; d marks the D form. Primed or numbered codes have the meaning given here. Ends that are not written are not given here. I, II: the chains in the order shown. * marks the point of attachment. Az8″ = 2-amino-10-azidodecanoic acid (azido amino acid), [N-]=[N+]=NCCCCCCCC[C@H](N[*:1])C(=O)[*:2]; Butanoyl(4-ethynyl) = C#CCCCC(=O)*; Biotin′ = not defined here; Pra = C#CC[C@H](N)C(=O)O; C8N3 = not defined here; 5HA = not defined here; Az8 = not defined here
# T1: Akt1-S473E (H. sapiens, UniProt P31749 118-480 (human entry))
# T1 construct: Partially active Akt1 kinase domain expressed in Hi5 insect cells from pVLAKT.2; also called Akt-S473E; AktS473E
# T1 chain: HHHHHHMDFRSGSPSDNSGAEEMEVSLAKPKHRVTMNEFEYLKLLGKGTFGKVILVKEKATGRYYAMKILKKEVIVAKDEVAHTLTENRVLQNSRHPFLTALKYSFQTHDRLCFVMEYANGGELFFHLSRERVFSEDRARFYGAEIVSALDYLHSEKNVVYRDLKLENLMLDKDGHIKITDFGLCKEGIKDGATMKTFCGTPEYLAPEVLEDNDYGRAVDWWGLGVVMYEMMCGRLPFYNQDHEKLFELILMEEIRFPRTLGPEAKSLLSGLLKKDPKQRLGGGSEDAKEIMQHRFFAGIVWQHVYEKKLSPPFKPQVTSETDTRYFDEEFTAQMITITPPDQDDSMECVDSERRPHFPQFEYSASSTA
# T2: Akt1-S473E-T308P (H. sapiens, UniProt P31749 118-480 (human entry), phosphorylated at residue T308 (phosphothreonine))
# T2 construct: Fully active kinase; T308P means phospho-T308, not a proline substitution; Same construct as Akt1-S473E; also called Akt-S473E-T308P; Akt-S473E/T308P
# T2 chain: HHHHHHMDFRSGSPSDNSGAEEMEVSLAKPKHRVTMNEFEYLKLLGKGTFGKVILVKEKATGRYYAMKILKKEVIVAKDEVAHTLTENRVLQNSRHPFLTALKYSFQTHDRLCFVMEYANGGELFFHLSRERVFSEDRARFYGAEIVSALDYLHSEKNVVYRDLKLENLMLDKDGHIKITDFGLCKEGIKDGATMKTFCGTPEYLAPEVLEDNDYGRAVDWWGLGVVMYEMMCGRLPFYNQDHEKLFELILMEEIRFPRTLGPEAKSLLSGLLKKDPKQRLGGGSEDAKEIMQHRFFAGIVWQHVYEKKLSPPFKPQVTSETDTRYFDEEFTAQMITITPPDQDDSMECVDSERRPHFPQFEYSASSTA
# Legend:
# Akt1-S473E [1] = target: T1, Akt1-S473E; assay: ELISA: Akt-S473E on Ni-NTA plate, biotinylated peptide titrated, SA-HRP
# Procedure: 3 μg of Akt-S473E was added to each well in a HisSorb Ni-NTA plate (Qiagen) in 50 μL of ELISA blocking buffer (25 mM Tris-CI (pH=7.5), 150 mM NaCl, 10 mM MgCl₂, 0.1% (v/v) Tween-20, and 4 mg/mL BSA). 50 μL of imidazole blocking buffer (25 mM Tris-CI (pH=7.5), 150 mM NaCl, 10 mM MgCl₂, 0.1% (v/v) Tween-20, 100 mM imidazole, and 4 mg/mL BSA) was added to the control wells. After 18 hours at 4° C., the wells were washed with ELISA blocking buffer and 50 μL of each ligand dilution was added in ELISA blocking buffer. The ligands were bound at 4° C. for 120 minutes followed by three washed in ELISA blocking buffer. 50 μL of horseradish peroxidase-conjugated streptavidin (SA-HRP, Thermo) was added (1:5000 dilution in ELISA blocking buffer) and incubated for 70 minutes at 4° C. The wells were washed three times in TBST (Tris-buffered saline+0.2% Tween-20) and once in TBS (Tris-buffered saline). 50 μL of peroxidase substrate (KPL) was added to generate the final signal which was quenched in 1 M H₂SO₄ and quantitated on a 96-well plate reader at λ=450 nm. The Net A450 was calculated by subtracting the A450 of each blank well (No Akt-S473E) from the experimental well. The data were fit by non-linear regression in GraphPad Prism.
# Akt1-S473E [2] = target: T1, Akt1-S473E; assay: SPR (Biacore T100): biotinylated triligand on streptavidin chip, Akt1-S473E 9000 nM to 1 nM as analyte, 10 °C, from kinetic constants
# Procedure: For this experiment, the biotinylated triligand was immobilized on a streptavidin-derivatized biacore chip and probed with Akt-S473E at concentrations ranging from 9 μM to 1 nM.
# Triligand binding affinity was further analyzed by SPR using a Biacore T100. A Streptavidin Chip (Series S, G.E. Healthcare) was conditioned as recommended by the manufacturer. Biotinylated ligand was diluted into HBSP+ Buffer (G.E. Healthcare) to a final concentration of 100 nM and 137 RU was immobilized on the chip. Akt1-S473E was prepared as described previously and subjected to buffer exchange into HBSP+using Zeba Desalting Columns (Pierce). Serial dilutions of the enzyme were made in HBSP+ buffer (9000 nM to 1 nM) and flowed over the chip at 50 μL/minute. Binding and dissociation were carried out at 10° C. with a contact time of 360 seconds, a dissociation time of 400 seconds, and a stabilization time of 200 seconds. The response was corrected using an unmodified reference flow cell. Kinetic constants were obtained from the sensograms and used to calculate the dissociation constant.
# Akt1-S473E-T308P = target: T2, Akt1-S473E-T308P; assay: kinase kinetics, Dixon plot of 1/v vs. [Triligand] with varying [ATP]; noncompetitive
# Procedure: To determine the inhibition mode of the triligand with respect to the ATP, kinase reactions were set up with increasing concentrations of ATP. The reactions were set up in a similar manner to that described above. The concentration of Biotin-Crosstide was held constant at 25 μM and the concentration of enzyme was held at […]. The concentration of ATP ranged from 125 μM to 4 μM (125 μM, 63 μM, 32 μM, 16 μM, 8 μM, 4 μM) while the concentration of triligand varied from 0 to 10 μM (0, 1 μM, 5 μM, 10 μM). [γ-³²P]-ATP (7000 Ci/mmol, 10 μCi/μL) was added to the cold ATP stock to maintain an [ATP]ₜₒₜₐₗ/[γ-³²P]-ATP ratio of 1667. The reactions were incubated, quenched, and analyzed as described above.
# KM and Vₘₐₓ values for Akt1-S473ET308P were obtained by nonlinear regression from the results of the inhibition experiments (GraphPad). The literature values for the Michaelis constants for ATP and substrate peptide were taken from Klein 2005. The triligand Kᵢ (noncompetitive inhibition) was obtained from the negative X-intercept of the Dixon plot of 1/v vs. [Triligand] with varying [ATP]. The Kᵢ is the mean value of the observed X-intercepts and the error range is the standard deviation. The triligand K_{i′}, (uncompetitive inhibition) was obtained from the intercept of the Dixon plot of 1/v vs. [Triligand] with varying [Peptide]. […]
# Akt1-S473E [3] = target: T1, Akt1-S473E; assay: ELISA
binder,measurement,setting,value
"5HA-Biligand-Bio (Akt biligand) (designed binder, triazole II:N-II:1; reading uncertain; also: mixture of diastereomers, Branched peptide, mixture of diastereomers; also called biotinylated biligand) peptide 1: {Butanoyl(4-ethynyl)-Az8}-VFYRLGY-biotin peptide 2: Ac-[Pra]FWFLRG-NH2",fold improvement in affinity relative to the anchor peptide,Akt1-S473E [1],> 100 fold
"Akt triligand (biotinylated) (designed binder, triazole II:N-II:1; reading uncertain; also: triazole to a chain's N-terminus, Assembled from 5HA-Biligand-Bio and Ac-C8N3-RHERI-CONH2; also called branched triligand) peptide 1: {5HA-C8N3}-VFYRLGY-{Biotin′} peptide 2: Ac-[Pra]FWFLRG-NH2 peptide 3: {Ac-C8N3}-RHERI-NH2",Kd,Akt1-S473E [2],0.2 µM
same,Ki,Akt1-S473E-T308P,4 µM
[Az8″]VFYRLGY-biotin (also called anchor peptide; biotinylated anchor peptide) [biotinylated anchor ligand Az8-VFYRLGY-Biotin],Kd,Akt1-S473E [3],25 µM

# Reference: patent US20250264471A1 (INDI MOLECULAR, published 2025)
